From patent publication US7732178B2, “Laccase enzymes and their uses” (AB Enzymes Oy, priority 2004, dated 2010)
“Also recorded” adds a separate entry of the source.

Legend:
Decolorization of dyes = test: Decolorization of dyes; set-up: key to Decolorization of Remazol Brilliant blue, Time 30 min / Decolorization of Remazol Brilliant blue, Time 60 min: −: no visually detectable change; +: visually detectable fading of the colour; ++: considerable fading of the colour; +++: complete/almost complete decolorization; conditions: for Decolorization of Remazol Brilliant blue, Time 30 min / Decolorization of Remazol Brilliant blue, Time 60 min: Table 24, dye 5 mg/50 ml, enzyme 100 nkat/50 ml, 50° C., pH 6
Procedure: The recombinant laccases CtLcc1, TaLcc2 and TaLcc4, derived from Trichoderma strains (Example 7) were tested for their ability to decolorize different dyes in the presence of the methyl syringate mediator (Example 7) or without it. The experiments were carried out in 100 ml shake flasks containing 50 ml of dye dissolved in citrate phosphate buffer pH 6. Dye concentration 5 mg/50 ml was used. Enzyme was dosed 100 nkat per 50 ml and the mediator 5 mg per 50 ml. Control samples contained only dye solution. The shake flasks were incubated at 50° C. for 30, 60 and 120 minutes. Samples of 3.5 ml were taken in test tubes for visual evaluation.

[1] = Stain removal, tea soiling; set-up: key to Tea L* / Tea a* / Tea b*: CIE L*a*b* color coordinates from reflectance; conditions: for Tea L* / Tea a* / Tea b*: 60 min, pH 6
Procedure: (§1) Laccases CtLcc1, TaLcc2, TaLcc4 and Denilite II Base (Example 7) were tested for their ability to remove stains. The following artificially soiled test cloths were used: grass soiling (Art.164, EMPA Testmaterialen, Germany), tea soiling (Art. 167, EMPA Testmaterialen, Germany). The fabric was cut in 5.8×5.8 cm swatches. Laccase treatments were performed in LP-2 Launder Ometer as follows. About 5 g of soiled fabrics were loaded into 1.2 liter containers containing 150 ml Mc Ilvaine's citrate phosphate buffer pH 6 and the containers were temperated. Enzyme with or without the mediator (methyl syringate, DeniLite II Assist, Novozymes) was added as laccase activity units (Example 7). Enzyme was dosed 200 nkat/g and the mediator 10 mg/g on the weight of fabric, except at 40° C. dosages of 20 nkat/g and 2 mg/g were also used. The Launder Ometer was run at 40, 50 or 60° C. and pH 6 for 60 min. After that the swatches were carefully rinsed under running water and in shake flasks containing warm water and dried in the air.
(§2) The stain removal effect was evaluated by measuring the colour as reflectance values using L*a*b* color space coordinates (Example 7). The colour of the swatches was measured before and after the laccase treatment.

[2] = Denim bleaching at different temperatures; set-up: key to After laccase treatment L* / After laccase treatment b* / Increase of L*: CIE L*a*b* colour coordinates (illuminant D65), reflectance; conditions: for After laccase treatment L* / After laccase treatment b* / Increase of L*: face side of denim, 30 min, pH 6, enzyme 200 nkat/g, mediator 10 mg/g
Procedure: Lee Cooper jeans (MASI Company Oy, Finland) that were desized and treated with neutral ECOSTONE® cellulase were used as test material. Laccase treatments were performed in LP-2 Launder Ometer as follows. About 10 g of denim swatches (15×14 cm) were loaded into 1.2 liter containers containing 200 ml Mc Ilvaine's citrate phosphate buffer pH 5, 6 or 7 and the containers were temperated. Enzyme with or without the mediator (methyl syringate, DeniLite II Assist, Novozymes) was added as laccase activity units. Enzyme was dosed 200 nkat/g and the mediator 10 mg/g on the weight of fabric. […] The Launder Ometer was run at 50° C. for 30 min and after that the temperature in Launder was raised to 80° C. for 10 min. The swatches were carefully rinsed with warm water, dried half-dry in a tumbler and after that air dried.
The bleaching effect was evaluated by measuring the colour as reflectance values with the Minolta Chromameter CM 1000 (Minolta Co.) using L*a*b* color space coordinates (illuminant D65). The colour from both sides of the swatches was measured before and after the laccase treatment. Each measurement was the average of several measurements.
The test system and denim were as in Example 7, except that the conditions during the laccase and mediator treatment in Launder were 30 min, pH 6 and temperature 30-70° C. (DeniLite II Base also at 80° C.) and the enzyme was inactivated by alkaline treatment instead of raising the temperature in Launder as follows. After removing swatches from the containers they were soaked in warm water containing NaOH (pH 11.5) for 10 min and rinsed carefully with warm water. The swatches were dried half-dry in a tumbler and after that air dried. The bleaching effect was evaluated by measuring the colour as reflectance values as in Example 7.

[3] = Specific activity towards di-methoxy-phenol (DMP); assay type: biochemical; conditions: 25 mM MES buffer, pH 5.5
Procedure: Specific activities of the purified T. arenaria and C. thermophilum laccases were determined towards different laccase substrates.

[4] = Stain removal, grass soiling; set-up: key to Grass L* / Grass a* / Grass b*: CIE L*a*b* color coordinates from reflectance; conditions: for Grass L* / Grass a* / Grass b*: 60 min, pH 6
Procedure: as §1, §2

[5] = 40° C., enzyme 20 nkat/g + mediator 2 mg/g (Mediator only: 0 nkat/g)
[6] = 40° C., enzyme 200 nkat/g + mediator 10 mg/g (Mediator only: 0 nkat/g), RF5571
[7] = 40° C., enzyme 200 nkat/g + mediator 10 mg/g (Mediator only: 0 nkat/g), RF5573
[8] = 40° C., enzyme 200 nkat/g, mediator 0 mg/g
[9] = 50° C., enzyme 200 nkat/g + mediator 10 mg/g (Mediator only: 0 nkat/g)
[10] = CtLcc1 at 60° C., TaLcc2 at 50° C.

- After laccase treatment L* ([2]; 30° C.): 33.99
- After laccase treatment b* ([2]; 30° C.): −19.33
- After laccase treatment L* ([2]; 40° C.): 37.08
- After laccase treatment b* ([2]; 40° C.): −18.53
- After laccase treatment L* ([2]; 50° C., alkaline inactivation): 37.47
- After laccase treatment b* ([2]; 50° C., alkaline inactivation): −18.48
- After laccase treatment L* ([2]; 60° C.): 36.07
- After laccase treatment b* ([2]; 60° C.): −18.26
- After laccase treatment L* ([2]; 70° C.): 32.84
- After laccase treatment b* ([2]; 70° C.): −17.94
B1: TaLcc2: Thielavia arenaria ALKO 4197 laccase, SEQ ID NO: 41, produced in Trichoderma reesei (protein)
chain: MLTETLKSRNMLQSILALLATALGSSAFAIPELPEVSLQPRQACENTATSRQCWGDLSIDTNYYEVLPSTGRPPQEYWLSVVEGPCAPDGYNRTCMTFNGTVPGPTLFADWGDELVIHVTNNMVNNGTAIHWHGIRMLNNTLNDGVPGVTQCAIAPGESMTYRFNVTQYGSTWYHSHFSLQYAEGLFGGMILRGPSTANWDEDLGVLFLQDWSHVEAFTRWHEAKAGFPPSLDGGLINGTNTFDCSTLSPTDPKCTGNGKKFETVFEPGKKYLIRLINVAIDGVFQFSIDGHSLTVIATDLVPIVPYTTDSVQITIGQRYDIIVEANATPGNYWMRADWVTACVTNDHPEHMTGIVRYDASSIDPPTSESNVTKTSSCLGEPNEKTIPHLSLDVTNIGGTNVEELSFDTTSGDYFQWTLNTSSLVLDWGNPTMARIFNGDAIFPTEYNVVAVNKTGTGPEWTVLVIQDQSNLPIAHPIHLHGHDFWVLAAEEGVFNGNISSFNTRNPARRDVATLPGRGYLAIAFQIDNPGTWLTHCHIAWHASQGLSLEFVESQSEIVTDEVSRGVFNDVCASWRAHDPLWEQEDSGI
modifications: Thielavia arenaria ALKO4197; (1)..(589) Deduced amino acid sequence of Thielavia arenaria ALKO4197 TaLacc2
- Decolorization of Remazol Brilliant blue, Time 30 min (Decolorization of dyes; mediator 0 mg/50 ml): −
- Decolorization of Remazol Brilliant blue, Time 60 min (Decolorization of dyes; mediator 0 mg/50 ml): −
- Decolorization of Remazol Brilliant blue, Time 30 min (Decolorization of dyes; mediator 5 mg/50 ml): ++
- Decolorization of Remazol Brilliant blue, Time 60 min (Decolorization of dyes; mediator 5 mg/50 ml): +++
- decolorization of Remazol Brilliant Blue (Decolorization of dyes; in the presence of the mediator): very effectively; also recorded: to great extend or completely
- Tea L* [1, 5]: 75.61
- Tea a* [1, 5]: 5.24
- Tea b* [1, 5]: 23.66
- Tea L* [1, 6]: 77.28
- Tea a* [1, 6]: 4.36
- Tea b* [1, 6]: 24.32
- Tea L* [1, 7]: 77.04
- Tea a* [1, 7]: 4.41
- Tea b* [1, 7]: 24.36
- Tea L* [1, 8]: 76.09
- Tea a* [1, 8]: 5.37
- Tea b* [1, 8]: 22.59
- Tea L* [1, 9]: 77.73
- Tea a* [1, 9]: 3.99
- Tea b* [1, 9]: 22.89
- removal of tea soiling with the mediator [1, 10]: effective
- decolorization of denim (increase of lightness) compared to Denilite II Base ([2]; 40-50 ° C. and pH 6): more efficient
- Increase of L* ([2]; 30° C.): 4.45
- Increase of L* ([2]; 40° C.): 8.15
- Increase of L* ([2]; 50° C., alkaline inactivation): 9.00
- Increase of L* ([2]; 60° C.): 6.82
- Increase of L* ([2]; 70° C.): 4.54
- Specific activity on DMP [3]: 75 nkat/mg
- Grass L* [4, 5]: 79.25
- Grass a* [4, 5]: −2.14
- Grass b* [4, 5]: 16.41
- Grass L* [4, 6]: 79.24
- Grass a* [4, 6]: −0.31
- Grass b* [4, 6]: 16.72
- Grass L* [4, 7]: 79.19
- Grass a* [4, 7]: −0.26
- Grass b* [4, 7]: 16.99
- Grass L* [4, 8]: 80.01
- Grass a* [4, 8]: −4.90
- Grass b* [4, 8]: 17.63
- Grass L* [4, 9]: 79.50
- Grass a* [4, 9]: −1.15
- Grass b* [4, 9]: 17.94
- removal of grass soiling with the mediator [4, 10]: effective
